{
  "source": "patent US20240197834A1",
  "about": "(HANMI PHARM, published 2024)",
  "note": "Square brackets hold non-standard residues; d marks the D form. Ends that are not written are not given here. Aib = CC(C)(N)C(=O)O",
  "data": [
    {"target": "glucagon receptor", "test": "cell-based or functional assay", "units": {"In vitro activity (Relative Activity to SEQ ID NO: 1, %)": "%"}, "values": [
      {"binder": "Y[Aib]QGTFTSDYSKYLDEKCAKEFVQWLMNT", "note": "[glucagon derivative of SEQ ID NO: 11]", "In vitro activity (Relative Activity to SEQ ID NO: 1, %)": 4.6},
      {"binder": "Y[Aib]QGTFTSDCSKYLDSRRAQDFVQWLMNT", "note": "[glucagon derivative of SEQ ID NO: 43]", "In vitro activity (Relative Activity to SEQ ID NO: 1, %)": 1.6},
      {"binder": "Y[Aib]QGTFTSDYSKYLDSCDADDFVVWLINT", "note": "[glucagon derivative of SEQ ID NO: 10]", "In vitro activity (Relative Activity to SEQ ID NO: 1, %)": "< 0.1"},
      {"binder": "HSQGTFTSDYSKYLDCERAQDFVQWLMNT", "note": "[glucagon derivative of SEQ ID NO: 3]", "In vitro activity (Relative Activity to SEQ ID NO: 1, %)": 6.1},
      {"binder": "YSQGTFTSDYSKYLDSCEADDFVQWLMNT", "note": "[glucagon derivative of SEQ ID NO: 7]", "In vitro activity (Relative Activity to SEQ ID NO: 1, %)": "< 0.1"},
      {"binder": "HSQGTFTSDYSKYLDSCEADDFVQWLMNT", "note": "[glucagon derivative of SEQ ID NO: 6]", "In vitro activity (Relative Activity to SEQ ID NO: 1, %)": "< 0.1"},
      {"binder": "Y[Aib]QGTFTSDYSKYLDCRRAQVFVQWLMRT", "note": "[glucagon derivative of SEQ ID NO: 16]", "In vitro activity (Relative Activity to SEQ ID NO: 1, %)": 4.2},
      {"binder": "YXQGTFTSDYSKYLDSRRAQDFVQWLMNTC (aminoisobutyric acid (Aib) at position 2 (printed X))", "note": "[glucagon derivative of SEQ ID NO: 44]", "In vitro activity (Relative Activity to SEQ ID NO: 1, %)": 75.4},
      {"binder": "Y[Aib]QGTFTSDYSCYLDSRRAQDFVQWLMNT", "note": "[glucagon derivative of SEQ ID NO: 13]", "In vitro activity (Relative Activity to SEQ ID NO: 1, %)": 5.2},
      {"binder": "HSQGTFTSDYSKYLDSCDAQDFVQWLMNT", "note": "[glucagon derivative of SEQ ID NO: 4]", "In vitro activity (Relative Activity to SEQ ID NO: 1, %)": "< 0.1"},
      {"binder": "Y[Aib]QGTFTSDYSKYLDCKRAKEFVQWLMNT", "note": "[glucagon derivative of SEQ ID NO: 14]", "In vitro activity (Relative Activity to SEQ ID NO: 1, %)": 18.1},
      {"binder": "Y[Aib]QGTFTSDYSKYLCEKRAQDFVVWLMNT", "note": "[glucagon derivative of SEQ ID NO: 15]", "In vitro activity (Relative Activity to SEQ ID NO: 1, %)": 1.1},
      {"binder": "Y[Aib]QGTFTSDYSKYLDCVRAQDFVQWLMRT", "note": "[glucagon derivative of SEQ ID NO: 17]", "In vitro activity (Relative Activity to SEQ ID NO: 1, %)": 23.2},
      {"binder": "Y[Aib]QGTFCSDYSKYLDSRRAQDFVQWLMNT", "note": "[glucagon derivative of SEQ ID NO: 42]", "In vitro activity (Relative Activity to SEQ ID NO: 1, %)": 37.9},
      {"binder": "Y[Aib]QGTFTSDYSCYLDEKRAKEFVQWLMNT", "note": "[glucagon derivative of SEQ ID NO: 45]", "In vitro activity (Relative Activity to SEQ ID NO: 1, %)": 5.2},
      {"binder": "HSQGTFTSDYSKYLDSCEAQDFVQWLMNT", "note": "[glucagon derivative of SEQ ID NO: 5]", "In vitro activity (Relative Activity to SEQ ID NO: 1, %)": 0.3},
      {"binder": "YXQGTFTSDYSKYLDSRRAQDFVQWLMNT (aminoisobutyric acid (Aib) at position 2 (printed X))", "note": "[glucagon derivative of SEQ ID NO: 33]", "In vitro activity (Relative Activity to SEQ ID NO: 1, %)": 108},
      {"binder": "HSQGTFTSDYSKYLDCDRAQDFVQWLMNT", "note": "[glucagon derivative of SEQ ID NO: 2]", "In vitro activity (Relative Activity to SEQ ID NO: 1, %)": 0.6},
      {"binder": "Y[Aib]QGTFTSDYSKYLDSRRACDFRLWLMNT", "note": "[glucagon derivative of SEQ ID NO: 18]", "In vitro activity (Relative Activity to SEQ ID NO: 1, %)": "< 0.1"}
    ]}
  ]
}
